Source: the supplement of paper PMC7877785
± gives the uncertainty stated by the source.

Experiment: self-splicing fitness, log relative to wild type (ln ratio); higher = more splicing; Tetrahymena group I intron in knt gene, E. coli kanamycin selection, DiMSum; sequences stand for … in CUCUCU…GGAGGGAAAAGUUAUCAGGCAUGCACCUGGUAGCUAGUCUUUAAACCAAUAGAUUGCAUCGGUUUAAAAGGCAAGACCGUCAAAUUGCGGGAAAGGGGUCAACAGCCGUUCAGUACCAAGUCUCAGGGGAAACUUUGAGAUGGCCUUGCAAAGGGUAUGGUAAUAAGCUGACGGACAUGGUCCUAACCACGCAGCCAAGUCCUAAGUCAACAGAUCUUCUGUUGAUAUGGAUGCAGUUCACAGACUAAAUGUCGGUCGGGGAAGAUGUAUUCUUCUCAUAAGAUAUAGUCGGACCUCUCCUUAAUGGGAGCUAGCGGAUGAAGUGAUGCAACACUGGAGCCGCUGGGAACUAAUUUGUAUGCGAAAGUAUAUUGAUUAGUUUUGGAGUACUCGUGGUCG
Summary of the method: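 Six replicate transformations of E. coli BL21(DE3) with a pET-22b(+) library were grown overnight at 37°C or 30°C. The library randomised all eight P1ex-region intron nucleotides, the intron lying in the knt kanamycin-resistance gene, and plates were LB agar with or without 25 μg/mL kanamycin plus 100 μg/mL carbenicillin, 50 μM IPTG and 0.2% rhamnose. Pooled colonies were amplicon-sequenced on an Illumina HiSeq 2500, and fitness is the DiMSum error-weighted combination of wild-type-normalised replicate fold changes, kanamycin versus none.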

Sequence | self-splicing fitness (ln) (30 °C) | self-splicing fitness (ln) (37 °C)
GCGUAGCAAUAUUACGAGAA | -1.15 ± 0.29 | -1.9 ± 0.2
GCGUAGCAAUAUUACGCAAC | -3.87 ± 0.18 | -2.33 ± 0.17
GCGUAGCAAUAUUACGCAGG | -3.66 ± 0.47 | -3.54 ± 0.33
GCGUAGCAAUAUUACGCAUG | – | -2.21 ± 0.23
GCGUAGCAAUAUUACGCGAU | -2.83 ± 0.26 | -2.31 ± 0.26
GCGUAGCAAUAUUACGCUGG | -2 ± 0.18 | -2.12 ± 0.32
GCGUAGCAAUAUUACGGACC | -2.2 ± 0.24 | -2.35 ± 0.35
GCGUAGCAAUAUUACGGAGC | -4.23 ± 0.28 | -3.03 ± 0.35
GCGUAGCAAUAUUACGGCAC | -0.32 ± 0.17 | -0.367 ± 0.22
GCGUAGCAAUAUUACGGCGU | -4.1 ± 0.37 | -2.07 ± 0.28
GCGUAGCAAUAUUACGGGAG | – | -2.28 ± 0.35
GCGUAGCAAUAUUACGGUCU | -0.587 ± 0.091 | -0.159 ± 0.1
GCGUAGCAAUAUUACGUCAA | – | -2.38 ± 0.32
GCGUAGCAAUAUUACGUGCC | -3.08 ± 0.25 | -2.83 ± 0.44
GCUAAGCAAUAUUACGAAUC | 0.136 ± 0.29 | -0.437 ± 0.35
GCUAAGCAAUAUUACGACAU | -0.734 ± 0.013 | -0.156 ± 0.033
GCUAAGCAAUAUUACGACCC | -0.411 ± 0.11 | 0.239 ± 0.14
GCUAAGCAAUAUUACGACCU | -0.833 ± 0.1 | 0.599 ± 0.12
GCUAAGCAAUAUUACGACUG | -0.97 ± 0.1 | -0.946 ± 0.14
GCUAAGCAAUAUUACGAGCC | -3.9 ± 0.2 | -2.33 ± 0.33
GCUAAGCAAUAUUACGAGUC | -3.37 ± 0.21 | -1.96 ± 0.22
GCUAAGCAAUAUUACGAUAG | -1.25 ± 0.13 | -1.63 ± 0.17
GCUAAGCAAUAUUACGAUGA | -0.837 ± 0.09 | -0.253 ± 0.1
GCUAAGCAAUAUUACGCACA | -0.938 ± 0.098 | -0.709 ± 0.11
GCUAAGCAAUAUUACGCGGG | -3.54 ± 0.2 | -0.902 ± 0.13

Sequence | self-splicing fitness (ln) (30 °C) | self-splicing fitness (ln) (37 °C)
GCUAAGCAAUAUUACGCUAG | -2.94 ± 0.35 | -3.64 ± 0.4
GCUAAGCAAUAUUACGCUGG | -4.23 ± 0.24 | -2.76 ± 0.26
GCUAAGCAAUAUUACGGCAA | -2.17 ± 0.21 | -0.981 ± 0.16
GCUAAGCAAUAUUACGGGUC | -2.55 ± 0.17 | -1.89 ± 0.15
GCUAAGCAAUAUUACGGGUU | -2.18 ± 0.09 | -1.28 ± 0.089
GCUAAGCAAUAUUACGGUAU | -0.915 ± 0.083 | -0.555 ± 0.1
GCUAAGCAAUAUUACGGUGA | -0.864 ± 0.073 | -0.0497 ± 0.077
GCUAAGCAAUAUUACGUAUC | -0.952 ± 0.082 | -0.277 ± 0.1
GCUAAGCAAUAUUACGUGGA | -2 ± 0.093 | -1.7 ± 0.092
GCUAAGCAAUAUUACGUGGU | -3.27 ± 0.19 | -2.5 ± 0.18
GCUAAGCAAUAUUACGUGUG | -1.22 ± 0.079 | -0.636 ± 0.098
GCUAAGCAAUAUUACGUUGU | -2.7 ± 0.11 | -2.43 ± 0.13
GCUCAGCAAUAUUACGAACC | -1.34 ± 0.22 | 0.355 ± 0.23
GCUCAGCAAUAUUACGACAG | -3.53 ± 0.21 | -2.28 ± 0.22
GCUCAGCAAUAUUACGACUC | -0.0981 ± 0.14 | 0.646 ± 0.14
GCUCAGCAAUAUUACGAGCA | -2.63 ± 0.16 | -1.09 ± 0.11
GCUCAGCAAUAUUACGAUCU | -0.418 ± 0.094 | -0.185 ± 0.099
GCUCAGCAAUAUUACGCGGA | -2.01 ± 0.26 | -2.63 ± 0.28
GCUCAGCAAUAUUACGCUCA | -1.59 ± 0.11 | -0.171 ± 0.11
GCUCAGCAAUAUUACGGAUA | -1.34 ± 0.12 | -0.254 ± 0.1
GCUCAGCAAUAUUACGGAUG | -1.76 ± 0.094 | -1.12 ± 0.12
GCUCAGCAAUAUUACGGCGG | -3.09 ± 0.29 | -1.46 ± 0.29
GCUCAGCAAUAUUACGUAGG | 0.139 ± 0.052 | 0.32 ± 0.076
GCUCAGCAAUAUUACGUCCG | -1.49 ± 0.14 | -1.13 ± 0.18
GCUCAGCAAUAUUACGUCCU | -1.16 ± 0.11 | -0.818 ± 0.14

Sequence | self-splicing fitness (ln) (30 °C) | self-splicing fitness (ln) (37 °C)
GCUCAGCAAUAUUACGUGAA | -0.113 ± 0.063 | 0.231 ± 0.077
GCUCAGCAAUAUUACGUGAU | -0.424 ± 0.072 | -0.373 ± 0.078
GCUCAGCAAUAUUACGUUGA | -3.15 ± 0.18 | -2.42 ± 0.2
GCUGAGCAAUAUUACGACUU | -1.64 ± 0.14 | 0.471 ± 0.14
GCUGAGCAAUAUUACGAGAC | -3.06 ± 0.36 | 0.142 ± 0.23
GCUGAGCAAUAUUACGAUCU | -1.69 ± 0.094 | -1.05 ± 0.1
GCUGAGCAAUAUUACGAUGG | -2.25 ± 0.17 | -0.805 ± 0.12
GCUGAGCAAUAUUACGAUGU | -2.49 ± 0.1 | -0.739 ± 0.12
GCUGAGCAAUAUUACGAUUG | -4.26 ± 0.32 | -3.02 ± 0.22
GCUGAGCAAUAUUACGCCGG | -1.99 ± 0.36 | –
GCUGAGCAAUAUUACGCCUU | -1.98 ± 0.31 | -1.48 ± 0.44
GCUGAGCAAUAUUACGCGCG | -0.818 ± 0.16 | -0.503 ± 0.19
GCUGAGCAAUAUUACGCGCU | -3.05 ± 0.31 | -1.53 ± 0.36
GCUGAGCAAUAUUACGCUCA | – | -2.75 ± 0.48
GCUGAGCAAUAUUACGCUUG | -3.25 ± 0.29 | -1.57 ± 0.29
GCUGAGCAAUAUUACGGAAG | -2.41 ± 0.24 | -0.395 ± 0.17
GCUGAGCAAUAUUACGGAGC | -3.49 ± 0.18 | -1.7 ± 0.16
GCUGAGCAAUAUUACGGAGG | -3.67 ± 0.38 | -1.14 ± 0.38
GCUGAGCAAUAUUACGGCUA | -2.46 ± 0.19 | -1.66 ± 0.19
GCUGAGCAAUAUUACGGGGU | – | -2.36 ± 0.28
GCUGAGCAAUAUUACGGUGA | -1.35 ± 0.17 | -0.217 ± 0.17
GCUGAGCAAUAUUACGUCGU | -2.05 ± 0.097 | -1.52 ± 0.12
GCUGAGCAAUAUUACGUGCC | -3.37 ± 0.34 | –
GCUGAGCAAUAUUACGUUAU | -2.96 ± 0.25 | -2.33 ± 0.28
GCUGAGCAAUAUUACGUUGA | -2.57 ± 0.22 | -2.61 ± 0.22

Sequence | self-splicing fitness (ln) (30 °C) | self-splicing fitness (ln) (37 °C)
GCUUAGCAAUAUUACGACAA | -1.02 ± 0.14 | -0.462 ± 0.19
GCUUAGCAAUAUUACGACGC | -0.0232 ± 0.13 | -0.351 ± 0.16
GCUUAGCAAUAUUACGAGCA | -2.24 ± 0.14 | -0.963 ± 0.13
GCUUAGCAAUAUUACGAGGG | -1.83 ± 0.11 | -1.36 ± 0.11
GCUUAGCAAUAUUACGCAUC | -1.04 ± 0.069 | -0.56 ± 0.091
GCUUAGCAAUAUUACGCAUU | -0.542 ± 0.095 | -0.78 ± 0.12
GCUUAGCAAUAUUACGCCGA | -2.42 ± 0.23 | -1.87 ± 0.27
GCUUAGCAAUAUUACGCGCC | -1.62 ± 0.45 | –
GCUUAGCAAUAUUACGCUGC | -3.09 ± 0.35 | -2.38 ± 0.42
GCUUAGCAAUAUUACGGCGC | -0.263 ± 0.14 | 0.127 ± 0.16
GCUUAGCAAUAUUACGGUCA | -1.04 ± 0.13 | -0.448 ± 0.14
GCUUAGCAAUAUUACGGUGC | -1.98 ± 0.12 | -0.681 ± 0.15
GCUUAGCAAUAUUACGGUGU | -0.596 ± 0.052 | -0.0556 ± 0.068
GCUUAGCAAUAUUACGUCGA | -1.67 ± 0.088 | -0.777 ± 0.11
GCUUAGCAAUAUUACGUCUA | -1.96 ± 0.26 | -0.873 ± 0.2
GCUUAGCAAUAUUACGUGGC | -3.12 ± 0.22 | -1.44 ± 0.4
GGAAAGCAAUAUUACGAAAA | -1.04 ± 0.48 | –
GGAAAGCAAUAUUACGAAGC | -1.07 ± 0.34 | -1.43 ± 0.34
GGAAAGCAAUAUUACGACCA | -0.87 ± 0.11 | -0.318 ± 0.14
GGAAAGCAAUAUUACGACGU | -0.135 ± 0.097 | 0.068 ± 0.1
GGAAAGCAAUAUUACGAGCG | -0.482 ± 0.12 | 0.397 ± 0.12
GGAAAGCAAUAUUACGAUUA | -0.527 ± 0.16 | 0.788 ± 0.16
GGAAAGCAAUAUUACGCCGA | -0.608 ± 0.34 | -0.354 ± 0.24
